Measurements as given in article doi:10.1101/2023.06.19.545549, “DnaK duplicates and regionally evolves for the increase of proteomic complexity in bacteria” (bioRxiv, 2023).

Biological target: the molecule itself
Assay: SDS-PAGE of the purified protein (monomer and dimer bands); purified MxDnaKs and chimeras on SDS-PAGE without DTT treatment; band compositions confirmed by LC/MS

B1: His6-MxDnaK2, purified recombinant (natural protein, Myxococcus xanthus DK1622, UniProt P95334 1-607, looked up)
chain: MGKVIGIDLGTTNSCVAVMEGGEPVVIPNSEGSRTTPSMVGFTDSGERLVGQIAKRQAITNPENTVFAAKRLIGRKFDSPEGKKAIGVSPFKVASSPNGDAWVEIRGKGYSPPEVSAIVLMKMKQTAEDYLGEQVSEAVITVPAYFNDSQRQATKDAGRIAGLSVLRIINEPTAAALAYGLDKVQDGGTERIAVYDLGGGTFDISILELNAGVFEVKSTNGDTFLGGEDFDQRLIDYLAKRFAESNNGLDLRKDRMALQRLKEAAERAKHELSSAPETEVNLPFITADASGPKHLTETVDRATFEALVTDLIDRTIEPCRIALKDAGIPAQQINQVLLVGGMTRMPRVQQKVKEFFGREPHKGINPDEVVAVGAAIQGGVLKGEVKDVLLLDVTPLSLGVETAGGVFTKIIDKNTTIPCKKSQVFSTAVDNQPLVSVHVLQGEREMAADNKTLARFELVGIPPAPRGVPQIEVSFDIDANGIVHVSAKDLGTGKVQQVRVVSNSGLSEAEIQAMISDAQSHASDDKKKKELAELRNNADGLIYTTEKSLEEYASLLSEKDREEIKADLERLKEVLNTSDAAVLKESFQRLEGSAYRIADAIYTGQAS
notes: MxDnaK2 (MXAN_6671), DnaK of Myxococcus xanthus DK1622; gene amplified from genomic DNA into pET28A; His6-MxDnaK2 printed as 65.3 kDa; source: E. coli BL21 (DE3), purified (Ni-NTA); not shown: His6, N-terminal, kept
- stoichiometry N: 2
